Source: PMC8844825 (iScience, 2022)

B1: Bcl10 (endogenous, Jurkat T cells) (natural protein, human (endogenous in Jurkat), UniProt O95999 1-233, looked up)
chain: MEPTAPSLTEEDLTEVKKDALENLRVYLCEKIIAERHFDHLRAKKILSREDTEEISCRTSSRKRAGKLLDYLQENPKGLDTLVESIRREKTQNFLIQKITDEVLKLRNIKLEHLKGLKCSSCEPFPDGATNNLSRSNSDESNFSEKLRASTVMYHPEGESSTTPFFSTNSSLNLPVLEVGRTENTIFSSTTLPRPGDPGAPPLPPDLQLEEEGTCANSSEMFLPLRSRTVSRQ
B2: HOIP (endogenous, Jurkat T cells) (natural protein, human (endogenous in Jurkat), UniProt Q96EP0 1-1072, looked up)
chain: MPGEEEERAFLVAREELASALRRDSGQAFSLEQLRPLLASSLPLAARYLQLDAARLVRCNAHGEPRNYLNTLSTALNILEKYGRNLLSPQRPRYWRGVKFNNPVFRSTVDAVQGGRDVLRLYGYTEEQPDGLSFPEGQEEPDEHQVATVTLEVLLLRTELSLLLQNTHPRQQALEQLLEDKVEDDMLQLSEFDPLLREIAPGPLTTPSVPGSTPGPCFLCGSAPGTLHCPSCKQALCPACDHLFHGHPSRAHHLRQTLPGVLQGTHLSPSLPASAQPRPQSTSLLALGDSSLSSPNPASAHLPWHCAACAMLNEPWAVLCVACDRPRGCKGLGLGTEGPQGTGGLEPDLARGRWACQSCTFENEAAAVLCSICERPRLAQPPSLVVDSRDAGICLQPLQQGDALLASAQSQVWYCIHCTFCNSSPGWVCVMCNRTSSPIPAQHAPRPYASSLEKGPPKPGPPRRLSAPLPSSCGDPEKQRQDKMREEGLQLVSMIREGEAAGACPEEIFSALQYSGTEVPLQWLRSELPYVLEMVAELAGQQDPGLGAFSCQEARRAWLDRHGNLDEAVEECVRTRRRKVQELQSLGFGPEEGSLQALFQHGGDVSRALTELQRQRLEPFRQRLWDSGPEPTPSWDGPDKQSLVRRLLAVYALPSWGRAELALSLLQETPRNYELGDVVEAVRHSQDRAFLRRLLAQECAVCGWALPHNRMQALTSCECTICPDCFRQHFTIALKEKHITDMVCPACGRPDLTDDTQLLSYFSTLDIQLRESLEPDAYALFHKKLTEGVLMRDPKFLWCAQCSFGFIYEREQLEATCPQCHQTFCVRCKRQWEEQHRGRSCEDFQNWKRMNDPEYQAQGLAMYLQENGIDCPKCKFSYALARGGCMHFHCTQCRHQFCSGCYNAFYAKNKCPEPNCRVKKSLHGHHPRDCLFYLRDWTALRLQKLLQDNNVMFNTEPPAGARAVPGGGCRVIEQKEVPNGLRDEACGKETPAGYAGLCQAHYKEYLVSLINAHSLDPATLYEVEELETATERYLHVRPQPLAGEDPPAYQARLLQKLTEEVPLGQSIPRRRK

Target: T1, myc-WT CARD11-FLAGx2 (murine, UniProt Q8CIS0 1-1159)
T1 sequence (looked up): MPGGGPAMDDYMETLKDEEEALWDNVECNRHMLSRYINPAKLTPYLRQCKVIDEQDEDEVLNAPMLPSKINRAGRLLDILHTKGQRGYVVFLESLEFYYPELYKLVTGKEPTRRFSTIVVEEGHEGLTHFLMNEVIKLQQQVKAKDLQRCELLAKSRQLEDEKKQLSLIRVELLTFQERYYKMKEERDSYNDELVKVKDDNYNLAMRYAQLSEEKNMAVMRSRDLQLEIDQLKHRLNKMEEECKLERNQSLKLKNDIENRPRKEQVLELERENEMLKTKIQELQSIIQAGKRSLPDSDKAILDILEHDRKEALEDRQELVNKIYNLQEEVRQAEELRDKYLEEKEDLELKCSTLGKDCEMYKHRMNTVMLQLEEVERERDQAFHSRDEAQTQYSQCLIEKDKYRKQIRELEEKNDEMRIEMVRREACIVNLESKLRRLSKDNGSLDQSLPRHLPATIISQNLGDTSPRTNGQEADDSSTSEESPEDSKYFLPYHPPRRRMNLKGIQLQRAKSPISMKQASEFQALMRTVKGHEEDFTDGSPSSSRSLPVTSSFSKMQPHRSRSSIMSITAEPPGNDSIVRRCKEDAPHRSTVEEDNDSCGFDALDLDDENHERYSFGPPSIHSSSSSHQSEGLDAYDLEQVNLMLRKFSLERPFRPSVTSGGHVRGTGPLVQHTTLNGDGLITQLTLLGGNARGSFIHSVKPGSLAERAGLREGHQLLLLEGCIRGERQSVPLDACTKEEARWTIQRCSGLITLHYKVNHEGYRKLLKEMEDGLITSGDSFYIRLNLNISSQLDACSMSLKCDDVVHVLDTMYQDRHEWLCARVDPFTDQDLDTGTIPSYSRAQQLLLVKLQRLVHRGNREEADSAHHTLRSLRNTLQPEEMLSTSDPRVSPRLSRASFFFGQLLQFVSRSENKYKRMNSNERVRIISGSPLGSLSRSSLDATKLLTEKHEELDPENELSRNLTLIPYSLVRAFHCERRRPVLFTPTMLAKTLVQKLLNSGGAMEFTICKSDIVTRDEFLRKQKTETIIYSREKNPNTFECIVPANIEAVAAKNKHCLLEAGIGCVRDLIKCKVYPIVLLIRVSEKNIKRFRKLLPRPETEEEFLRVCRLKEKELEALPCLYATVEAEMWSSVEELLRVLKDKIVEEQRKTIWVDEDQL
Assay: co-IP

Binder | relative inducible binding (bound/input, normalised to WT)
B1 | 1 relative to WT
B2 | 1 relative to WT
